From patent US20250382588A1, “CHIMERIC AAV AND USES THEREOF” (priority 2023, published 2025) come the findings set out here.

In data set [1] the test system is MSNs in the striatum (STR). In words: Promoter activity driving EYFP reporter expression after AAV injection into the SNr: striatum. The format is in vivo, mice. The following applies: for labeled MSNs, reporter expression driven by promoter (FIG. 4B): mean±SEM, n=3 mice, AAV8R12 capsid; for Activity Level STR: numbers of YFP-expressing neurons per animal. The source says:
(§1) Brain profiles of two epigenetic marks for enhancers and promoters, monomethylation of histone H3 lysine 4 (H3K4me1) and acetylation of histone H3 lysine 27 (H3K27ac) were checked and approximately 2 kilobase-long sequences around the transcriptional start site (TSS) that have high levels of H3K4me1 and/or H3K27ac were identified in mouse brain. Homologous sequences at equivalent positions of the human genome were then cloned onto an AAV backbone, and the activity of the homologous sequences in directing reporter expression was tested in mice after injections of AAVs into the SNr (FIG. 3A-C, TABLE 3).
G88P2 (2259 bp) was cloned with the following primers: 5′-[…] (SEQ ID NO.: 36) and 3-[…] (SEQ ID NO.: 37). To increase the payload of AAV genome, the G88P2 promoter was shorted using restriction enzymes, and two derivatives, G88P3 and G88P7, were made which were 1395-bp and 896-bp long, respectively (FIG. 3A-3C). Comparative efficiency in labeling MSNs for the two shortened promoters was observed. For mice that received viral injections into the SNr, viruses expressing EYFP driven by G88P3 and G88P7 promoters labeled 3.7±0.66×104 and 3.95±0.73×104 MSNs per mouse, respectively, compared to 1.61±0.16×104 labeled MSNs by hSyn promoter (FIG. 4B).
(§2) Region-selective promoter identification was based on the Allen Brain Atlas in situ hybridization (ISH) data (mouse.brain-map.org/). Genes highly expressed in the striatum but not in other parts of the basal ganglia were first selected as candidates. H3K4me1 and H3K27ac are known epigenetic marks for active promoters and enhancers. Thus, we identified regions with high levels of these two chromatin modification marks in mouse brain as candidate regions based on the ENCODE annotation data on the UCSC Genome Browser (genome.ucsc.edu/). To further extend the promoters' potential application in primates, the sequences of interest were PCR-amplified from human genomic DNA. Based on the above strategies, GPR88 was selected as a candidate gene. The nucleotide sequence upstream of the start codon with high H3K4me1 and H3K27ac levels was selected as the candidate promoter sequence. G88P2 (2259 bp) was cloned with the following primers: 5′-[…]-3′ (SEQ ID NO: 36), 5′-[…]-3′ (SEQ ID NO: 58). G88P3 (1395 bp) and G88P7 (896 bp) were further shortened by subcloning.
Promoters were subcloned into a pAAV-hSyn-EYFP vector derived from pAAV-hSyn-EGFP (Addgene, 50465) to replace the hSyn promoter by using appropriate restriction enzyme combinations. To generate pAAV-G88P7-DIO-tdTomato, a DIO-tdTomato cassette was subcloned into pAAV-G88P7-EYFP to replace EYFP by restriction enzyme digestion. To generate pAAV-G88P3-HA-hM3Dq, promoter G88P3 was subcloned into pAAV-hSyn-HA-hM3Dq-IRES-mCitrine (Addgene, 50463) via the EcoRI/BamHI restriction sites to replace the hSyn promoter and IRES-mCitrine was removed afterwards by restriction enzyme digestion. To generate pAAV-G88P3-HA-hM3Dq-2A-EYFP, a 2A-EYFP fragment was subcloned into pAAV-G88P3-HA-hM3Dq after hM3Dq. […]
Images were acquired using a confocal microscope (Carl Zeiss, LSM880) and an Axiolmager.Z1 microscope with apotome (Carl Zeiss). […] Every sixth section was analyzed, and numbers of EYFP+ cells were multiplied by six to acquire the approximate total number and mean number of cells per animal. […]

The test system of data set [2] is substantia nigra (SN). Kind of data set: Promoter activity driving EYFP reporter expression after AAV injection into the SNr: substantia nigra. The class given is in vivo, mice. The following applies: numbers of YFP-expressing neurons per animal.
Description: as §1
as §2, with “subcloning. […]” for “subcloning.”
Images were acquired using a confocal microscope (Carl Zeiss, LSM880) and an Axiolmager.Z1 microscope with apotome (Carl Zeiss). […] Every sixth section was analyzed, and numbers of EYFP+ cells were multiplied by six to acquire the approximate total number and mean number of cells per animal. Images were processed using ImageJ (NIH, USA), and final quantifications were independently performed manually by two blinded experimenters.

B1: G88P3: 1395-bp derivative of the G88P2 promoter, SEQ ID NO: 60 (nucleic acid, listed as Homo sapiens)
DNA: TCTAGATGTACCACTGACATCTGCTTTAAATCTTTTGCCCATTTCATTTTTACCCTCTAACCATTTCATTACTAAAACACAAAACAAACTCCGGAAAGGAGTTTGTTGATGAGAAAACACTGAAAGTACGATTTAAATTGAGGAATGGAGATTTTCTGTGGATAATTGTCTATGTTCCACTTTACCAAAGAAAAATGAATTTCAAGTAGTGCATAAAGTAATTCTCGTTAAAAAATGTGGGAATAAAGAGATCAGTCCTGGGTACTGGGAATATATTTATCTCACAGAAAAATCTTGCCCACAAAATGCATCAGACTGAGATGAAATACTCTAGGGTATATTAAATTTTATTCTAATATTGAAGGGAGGGAAAAAAAGGACGGAAAGAAAAATGAAACAGGATGAAAAATAAGGTGATTGGGAGAGAGAAAAGACAGAGAAACTTGTTAACGACAGGACTTTCTGAGCAAGATATTTTTCTTCCTTTTACAAGTTGGAAGCTATTGAATAATTCATGCCAAGCGTGGAAAGGCTGTCTTTTCCCTGGATGATGTATAACTAAGCAGGAGAGAGCTTCGAGTGGGTTCACCACATCAGCCACCACTCCTGCTTCTGAGCACAGGGTGCTCTCCTCTTGAGCTCAGCTTCTGCTTTTGCAGCCAAGCATTCTTGCTGCTGCTGCCTGCCTGCCCACCCGCCTGGGCTTGCAGCCCGCCACTTTACTTTCTCCAGCCCTGATACCAGCTGAGAAGTCTCCCTGCAGCTGCTAGTTCCTGCCCAGGACCATGTGTGTGGATGCTGCTTGGGAGAAGCGGGCACTTGCTCCTGGCACTGATCCCAGCTGAGTTTCTCCTGTTGATTTCTGGACCACTGATGCTGTTGCTGAGGAGGTATTTCCCGGCATCCCTCCCCCTGAGACACCGGCTAAGGACCAGCCTAAACGCAAGGTAACCTTCACCTCTTTCCCATGGGATTTTCCCCAGCTGGGATATCTCTGCTTTCTCCTGGAACTAGGTCCTCCAGCTGGCAACATATCTCTCTCTCTCTCTCTCTCTCTCTCTCTCTCTCTCTGTGTGTGTGTGTGTGTGTTGGGGGAGAAGAGGAGACTGTTTTAGGTATTGCTCTGTCCTAGGGCTTCCCCGATACCTGCTGAATCCAATGCAAAGTGGCCTTTCCCCTGGCTCTGGAGACATTTCCGAGGCAGGCACCTGTCATTTGCCACCCCCGTCCTCCTCCTCGAGCTCCCTTTCTCCCCCTCCCCCAGCCCATTATTCTGCTTCAGCCTTTTGTGTCAGTGGCAGAGGGCTGAAGGGATGTCTTTGCCCTTCTGGCAGGCAGGACAGTGTCAGGATGGACCGCGCTGCCAGAAGCCGACGCTAGCGAGGGAGGTGTGAA
Take B1: in data set [1], the “labeled MSNs, reporter expression driven by promoter (FIG. 4B)” value is given as 37026±6646 and the “Activity Level STR” value is “++++ (>25 k)”. In data set [2], the “Activity Level SN” value is recorded as “+ (<5 k)”.

B2: G88P7: 896-bp derivative of the G88P2 promoter, SEQ ID NO: 61 (nucleic acid, listed as Homo sapiens)
DNA: ATGCCAAGCGTGGAAAGGCTGTCTTTTCCCTGGATGATGTATAACTAAGCAGGAGAGAGCTTCGAGTGGGTTCACCACATCAGCCACCACTCCTGCTTCTGAGCACAGGGTGCTCTCCTCTTGAGCTCAGCTTCTGCTTTTGCAGCCAAGCATTCTTGCTGCTGCTGCCTGCCTGCCCACCCGCCTGGGCTTGCAGCCCGCCACTTTACTTTCTCCAGCCCTGATACCAGCTGAGAAGTCTCCCTGCAGCTGCTAGTTCCTGCCCAGGACCATGTGTGTGGATGCTGCTTGGGAGAAGCGGGCACTTGCTCCTGGCACTGATCCCAGCTGAGTTTCTCCTGTTGATTTCTGGACCACTGATGCTGTTGCTGAGGAGGTATTTCCCGGCATCCCTCCCCCTGAGACACCGGCTAAGGACCAGCCTAAACGCAAGGTAACCTTCACCTCTTTCCCATGGGATTTTCCCCAGCTGGGATATCTCTGCTTTCTCCTGGAACTAGGTCCTCCAGCTGGCAACATATCTCTCTCTCTCTCTCTCTCTCTCTCTCTCTCTCTCTCTCTGTGTGTGTGTGTGTGTGTTGGGGGAGAAGAGGAGACTGTTTTAGGTATTGCTCTGTCCTAGGGCTTCCCCGATACCTGCTGAATCCAATGCAAAGTGGCCTTTCCCCTGGCTCTGGAGACATTTCCGAGGCAGGCACCTGTCATCTGCCACCCCCGTCCTCCTCCTCGAGCTCCCTTTCTCCCCCTCCCCCAGCCCATTATTCTGCTTCAGCCTTTTGTGTCAGTGGCAGAGGGCTGAAGGGATGTCTTTGCCCTTCTGGCAGGCAGGACAGTGTCAGGATGGACCGCGCTGCCAGAAGCCGACGCTAGCGAGGGAGGTGTGAAGAGTTGGCCAG
For B2, in data set [1], the “labeled MSNs, reporter expression driven by promoter (FIG. 4B)” value came out at 39460±7281 and the “Activity Level STR” value is “++++ (>25 k)”. Moreover, the “Activity Level SN” value in data set [2] is given as “+ (<5 k)”.
